Test results as given in the supplement of paper PMC12667976.
± gives the standard error.

B1: library; numbered along this chain (parent)
chain: MATDAALRRLLRLHRTEIAVAVDSAFPLLHALADHDVVPEDKFQETLHLKEKEGCPQAFHALLSWLLTQDSTAILDFWRVLFKDYNLERYGRLQPILDSFPKDVDLSQPRKGRKPPAVPKALVPPPRLPTKRKASEEARAAAPAALTPRGTASPGSQLKAKPPKKPESSAEQQRLPLGNGIQTMSASVQRAVAMSSGDVPGARGAVEGILIQQVFESGGSKKCIQVGGEFYTPSKFEDSGSGKNKARSSSGPKPLVRAKGAQGAAPGGGEARLGQQGSVPAPLALPSDPQLHQKNEDECAVCRDGGELICCDGCPRAFHLACLSPPLREIPSGTWRCSSCLQATVQEVQPRAEEPRPQEPPVETPLPPGLRSAGEEVRGPPGEPLAGMDTTLVYKHLPAPPSAAPLPGLDSSALHPLLCVGPEGQQNLAPGARCGVCGDGTDVLRCTHCAAAFHWRCHFPAGTSRPGTGLRCRSCSGDVTPAPVEGVLAPSPARLAPGPAKDDTASHEPALHRDDLESLLSEHTFDGILQWAIQSMARPAAPFPS

Variants of: B1
Assay: AIRE transcriptional activation functional score (insulin promoter-GFP; nonsense median 0, synonymous median 1) (normalised score); higher = higher AIRE activity (more reporter activation)
Settings: with insulin promoter-GFP reporter in HEK293
Experimental: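 Deep mutational scan of full-length human AIRE (codon-optimized cDNA, DT-POPCode NNN libraries over three regions) integrated at a Bxb1 landing pad in HEK293 cells carrying an insulin core promoter-GFP reporter at a Flp-In site. Cells were sorted for the top 10% GFP about 14 days after transfection. Variant frequency log-ratios (select vs non-select, TileSeq) were rescaled so that the nonsense median is 0 and the synonymous median is 1, then averaged over biological replicates.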

AIRE transcriptional activation functional score: each site, then its substitutions
L146: W 1.42 ± 0.2 | R 0.262 ± 0.57 | C 0.639 ± 0.064 | M 0.496 ± 0.058 | K 0.924 ± 0.47 | H 0.618 ± 0.53 | Y 1.24 ± 0.09 | E 0.882 ± 0.26 | P 0.73 ± 0.35 | I 0.888 ± 0.25 | A 0.454 ± 0.55 | V 0.912 ± 0.45 | T 1.09 ± 0.68 | N 0.353 ± 0.38 | F 0.9 ± 0.14
A134: I 1.43 ± 0.48 | S 1.06 ± 0.4 | Q 1.1 ± 0.12 | C 1.35 ± 0.81 | W 0.124 ± 0.67 | V 1.34 ± 0.35 | R 0.538 ± 0.66 | K -3.51 ± 0.36 | N 1.63 ± 0.051 | G -0.0179 ± 0.3 | P -0.0505 ± 0.32 | L 1.11 ± 0.76 | T -0.16 ± 0.69 | Y 0.952 ± 0.67 | E -0.378 ± 0.22 | F 1.29 ± 0.44 | M -0.832 ± 0.19 | H 0.548 ± 0.16 | D 0.263 ± 0.28
T147: Y 0.76 ± 0.21 | K 0.787 ± 0.57 | E 1.45 ± 0.37 | Q 0.724 ± 0.48 | G 0.811 ± 0.49 | L 1.05 ± 0.42 | N 1.26 ± 0.56 | I 1.16 ± 0.47 | F 1.49 ± 0.13 | D 0.817 ± 0.27 | W 1.75 ± 0.18 | A 0.279 ± 0.55 | V 0.966 ± 0.9 | R 1.03 ± 0.44 | C 0.358 ± 0.19 | P 0.125 ± 0.5 | M 1.19 ± 0.19 | H 1.22 ± 1.1 | S 0.771 ± 0.6
R149: F 0.857 ± 0.42 | G 0.663 ± 0.62 | N 0.726 ± 0.25 | K 0.675 ± 0.64 | V 0.621 ± 0.44 | H 1.12 ± 0.097 | D 1.12 ± 0.18 | M 0.41 ± 0.38 | E 1.02 ± 0.19 | W 1.11 ± 0.26 | Q 1.71 ± 0.2 | L 1.22 ± 0.58 | S 1.26 ± 0.3 | A 1.19 ± 0.18 | P 0.874 ± 0.47 | T 0.559 ± 0.36 | Y 0.303 ± 0.2 | C 0.794 ± 0.24 | I 0.113 ± 0.67
E136: D 0.541 ± 0.62 | P 1.91 ± 0.84 | V 0.704 ± 0.44 | F 0.605 ± 0.16 | K -0.163 ± 0.49 | I 0.792 ± 0.39 | G 0.816 ± 0.32 | N 0.529 ± 0.18 | T 0.767 ± 0.32 | Q 1.45 ± 0.34 | M 0.441 ± 0.041 | S 0.919 ± 0.38 | A 1.16 ± 0.46 | R -0.203 ± 0.43 | W 1 ± 0.072 | C 1.22 ± 0.3 | H 1.15 ± 0.23 | L 0.669 ± 0.26 | Y 1.32 ± 0.34
A142: M 0.975 ± 0.063 | R 0.685 ± 0.49 | H 0.486 ± 0.85 | K 0.314 ± 0.24 | D 1.05 ± 0.44 | W 1.28 ± 0.14 | Y 1.14 ± 0.12 | C 1.03 ± 0.1 | V 1.27 ± 0.21 | T 0.704 ± 0.47 | P 0.882 ± 0.59 | E 1.17 ± 0.28 | N 0.413 ± 0.58 | I 0.926 ± 0.27 | L 1.17 ± 0.36 | S 0.968 ± 0.35 | F 1.16 ± 0.13 | G 1.29 ± 0.26 | Q -0.0872 ± 0.33
E137: I 0.97 ± 0.44 | D 1.23 ± 0.18 | G 0.593 ± 0.29 | H 0.409 ± 0.23 | T 0.166 ± 0.34 | Q -0.415 ± 0.88 | F 1.36 ± 0.29 | R 0.377 ± 0.72 | M 2.33 ± 0.18 | P 1.18 ± 0.076 | W 1.59 ± 0.4 | K 0.00389 ± 0.35 | N 0.174 ± 0.43 | L 0.822 ± 0.58 | A 1.36 ± 0.64 | C 0.524 ± 0.46 | V 0.84 ± 0.52 | Y 1.71 ± 0.65 | S 0.539 ± 0.22
P143: S 0.96 ± 0.3 | Q 1.33 ± 0.33 | D 1.01 ± 0.31 | K 0.307 ± 0.16 | R 0.548 ± 0.3 | M 1.02 ± 0.033 | N 1.32 ± 0.13 | L 1.11 ± 0.19 | G 0.958 ± 0.37 | H 1.09 ± 0.38 | W 1.15 ± 0.039 | C 0.956 ± 0.2 | F 1.28 ± 0.05 | Y 1.39 ± 0.15 | A 1.18 ± 0.61 | I 0.862 ± 0.41 | E 1.5 ± 0.46 | V 0.964 ± 0.27 | T 1.49 ± 0.49
A140: V 1.35 ± 0.35 | F 1.71 ± 0.3 | T 1.12 ± 0.5 | C 0.626 ± 0.46 | L 1.13 ± 0.7 | W 1.46 ± 0.073 | G 1.12 ± 0.45 | K 0.768 ± 0.51 | I 1.46 ± 0.72 | H 1.37 ± 0.089 | N 0.714 ± 0.56 | P 1.56 ± 0.47 | S 1.02 ± 0.59 | M 0.337 ± 0.19 | R 1.14 ± 0.49 | Q 0.908 ± 0.25 | E 1.36 ± 0.42 | Y 1.38 ± 0.29 | D 1.07 ± 0.13
